Literature values, collected in patent publication US20190360013.

System: mEcSSB (monomeric E. coli SSB) (Escherichia coli)
Conditions: CITED; at ion concentrations optimal for TdT; footprint 65 nt

In the case of ssDNA (65-nt footprint), the Kd is given as < 1 pM.
